PMC13391367

Experiments:
[1] = target: LENG8–PS^M (10×His–MBP–LENG8^491–800, 3×V5–PCID2, SEM1) (human) (UniProt Q96PV6); experiment: grating-coupled interferometry; V5-tagged LENG8–PS^M or SAC3D1–PS^M captured on an amine-coupled anti-V5 antibody (Creoptix WAVE, 4PCP chip); UAP56 injected as a 1:2 dilution series from 5 µM, with or without 200 µM 15U RNA, 25 mM HEPES pH 7.9, 50 mM KCl, 1 mM MgCl2, 1 mM TCEP, with and without 1 mM ATP, 25 °C; one-to-one model
[2] = target: SAC3D1–PS^M (10×His–MBP–SAC3D1^48–404, 3×V5–PCID2, SEM1) (human) (UniProt A6NKF1); experiment: as above
UAP56 (10×His–3C–UAP56) = UAP56 (10×His–3C–UAP56) (UniProt Q13838)
Chain of UAP56 (10×His–3C–UAP56) (Q13838 whole entry): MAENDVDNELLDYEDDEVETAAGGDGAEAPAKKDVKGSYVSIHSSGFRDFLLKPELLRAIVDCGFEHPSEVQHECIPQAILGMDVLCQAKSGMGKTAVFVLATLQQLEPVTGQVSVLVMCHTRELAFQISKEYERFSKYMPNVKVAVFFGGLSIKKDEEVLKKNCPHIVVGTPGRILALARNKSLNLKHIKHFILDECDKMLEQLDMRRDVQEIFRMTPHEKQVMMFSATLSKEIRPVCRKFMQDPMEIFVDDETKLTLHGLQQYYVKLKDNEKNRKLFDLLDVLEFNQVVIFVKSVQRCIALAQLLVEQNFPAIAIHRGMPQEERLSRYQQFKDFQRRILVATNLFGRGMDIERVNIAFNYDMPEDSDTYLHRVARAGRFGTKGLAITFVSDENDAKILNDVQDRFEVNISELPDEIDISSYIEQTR

Chain of UAP56(Δ1–43) (10×His–3C–UAP56(Δ1–43), residues 44–428) (Q13838 44-428, stated change not applied): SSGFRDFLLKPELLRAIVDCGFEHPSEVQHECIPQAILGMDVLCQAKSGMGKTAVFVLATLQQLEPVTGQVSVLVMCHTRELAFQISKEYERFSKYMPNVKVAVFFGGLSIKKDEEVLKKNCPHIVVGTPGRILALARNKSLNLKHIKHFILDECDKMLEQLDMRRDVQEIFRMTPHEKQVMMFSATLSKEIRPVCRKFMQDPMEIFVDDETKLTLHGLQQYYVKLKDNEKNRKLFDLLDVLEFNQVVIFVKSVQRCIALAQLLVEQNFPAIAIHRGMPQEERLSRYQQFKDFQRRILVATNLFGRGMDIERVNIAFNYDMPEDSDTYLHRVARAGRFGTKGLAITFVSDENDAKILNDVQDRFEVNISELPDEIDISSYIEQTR

Substance | fold reduction of affinity against UAP56 [1] | fold reduction of affinity against UAP56 [2] | fold stimulation of the apparent ATPase rate of UAP56 with RNA and ATP (NADH-coupled assay) (UAP56 (10×His–3C–UAP56))
UAP56(Δ1–43) (10×His–3C–UAP56(Δ1–43), residues 44–428) (from UniProt Q13838 44-428) (domain or fragment) | > 30 fold | > 30 fold | 
SAC3D1–PS^M (10×His–MBP–SAC3D1^48–404, 3×V5–PCID2, SEM1) (from UniProt A6NKF1 48-404; Q5JVF3 1-399; P60896 1-70) (complex) |  |  | 60 fold
LENG8–PS^M (10×His–MBP–LENG8^491–800, 3×V5–PCID2, SEM1) (from UniProt Q96PV6 491-800; Q5JVF3 1-399; P60896 1-70) (complex) |  |  | 290 fold
